From patent US20160368985A1

Legend:
human CD3ε (human) = human CD3ε (human) (UniProt P07766); test: BIACORE and Scatchard; monovalent KD of anti-CD3 arm; legend prints 2.5 nM
[1] = molecular target: truncated human FcRH5 (deletion of amino acids 1-744) with N-terminal gD tag (human) (UniProt Q96RD9); test: cell-based or functional assay
Chain of truncated human FcRH5 (deletion of amino acids 1-744) with N-terminal gD tag (human) (Q96RD9 745-977, stated change not applied): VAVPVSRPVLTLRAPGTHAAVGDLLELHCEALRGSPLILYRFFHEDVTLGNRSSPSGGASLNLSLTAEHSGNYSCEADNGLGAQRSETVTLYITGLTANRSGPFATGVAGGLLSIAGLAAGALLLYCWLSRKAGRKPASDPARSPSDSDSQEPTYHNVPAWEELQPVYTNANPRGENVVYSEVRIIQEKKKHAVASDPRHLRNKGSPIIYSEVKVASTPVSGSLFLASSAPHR

Chain of human CD3ε (human) (P07766 22-126): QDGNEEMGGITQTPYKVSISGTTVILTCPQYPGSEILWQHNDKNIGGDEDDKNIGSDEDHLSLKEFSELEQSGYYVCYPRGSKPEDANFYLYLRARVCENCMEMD

Row | Kd (human CD3ε (human)) | Substance | killing of cells expressing the truncated target, EC50 [1]
1 | 2 nM | anti-CD3 antibody huUCHT1.v9 | 
2 |  | anti-gD/UCHT1.v9 TDB (bispecific antibody) | 0.19 nM
